B1: CAP256-VRC26.11 (antibody, V domains shown)
VH: EVQLVESGGGVVPPGKSLTLSCVASRFTFSAFGMHWVRQAPGKGLEWVASISFAGIKKYYADSVKGRFSISRDNSNTLFLQMNGLRGEDTGLYHCVKDMRELECEEWASDYYDFGKPQPCLDRRGVSGISAWWGPGTMVTVSS
VL: QSVLTQPPSVSAAPGQNVTISCSGPPSHIEKNDVSWYQRLPGMAPKMVIYESKRRPLGIPVRFSASRSGSSATLVITGLQTADEADYYCGTWDGRMNFGTGTTVSVLG

target: HIV-1 Env of C1080.c3 (HIV-1); test: cell-based or functional assay

Row | Binder | neutralization IC50 [µg/mL]
1 | B1 | 0.018

target: HIV-1 Env of DU156.12 (HIV-1); test: cell-based or functional assay

Row | Binder | neutralization IC50 [µg/mL]
2 | B1 | > 50

target: HIV-1 Env of CAP256.PI (HIV-1); test: cell-based or functional assay

Row | Binder | neutralization IC50 [µg/mL]
3 | B1 | > 50

target: HIV-1 Env of 96ZM651.02 (HIV-1); test: cell-based or functional assay

Row | Binder | neutralization IC50 [µg/mL]
4 | B1 | > 50

target: HIV-1 Env of CAP210.E8 (HIV-1); test: cell-based or functional assay

Row | Binder | neutralization IC50 [µg/mL]
5 | B1 | 0.073

target: HIV-1 Env of AC10.29 (HIV-1); test: cell-based or functional assay

Row | Binder | neutralization IC50 [µg/mL]
6 | B1 | > 50

target: HIV-1 Env of RW020.2 (HIV-1); test: cell-based or functional assay

Row | Binder | neutralization IC50 [µg/mL]
7 | B1 | > 50

target: HIV-1 Env of ZM233.6 (HIV-1); test: cell-based or functional assay

Row | Binder | neutralization IC50 [µg/mL]
8 | B1 | 0.322

target: HIV-1 Env of MB201 (HIV-1); test: cell-based or functional assay

Row | Binder | neutralization IC50 [µg/mL]
9 | B1 | > 50

target: HIV-1 Env of THRO.18 (HIV-1); test: cell-based or functional assay

Row | Binder | neutralization IC50 [µg/mL]
10 | B1 | > 50

target: HIV-1 Env of SC422.8 (HIV-1); test: cell-based or functional assay

Row | Binder | neutralization IC50 [µg/mL]
11 | B1 | > 50

target: HIV-1 Env of ZM53.12 (HIV-1); test: cell-based or functional assay

Row | Binder | neutralization IC50 [µg/mL]
12 | B1 | 0.081

target: HIV-1 Env of Q842.d12 (HIV-1); test: cell-based or functional assay

Row | Binder | neutralization IC50 [µg/mL]
13 | B1 | > 50

target: HIV-1 Env of CAP45.G3 (HIV-1); test: cell-based or functional assay

Row | Binder | neutralization IC50 [µg/mL]
14 | B1 | > 50

target: HIV-1 Env of BG505.w6m (HIV-1); test: cell-based or functional assay

Row | Binder | neutralization IC50 [µg/mL]
15 | B1 | 4.2

target: HIV-1 Env of ZM249.1 (HIV-1); test: cell-based or functional assay

Row | Binder | neutralization IC50 [µg/mL]
16 | B1 | 34.5

target: HIV-1 Env of RHPA.7 (HIV-1); test: cell-based or functional assay

Row | Binder | neutralization IC50 [µg/mL]
17 | B1 | > 50

target: HIV-1 Env of Q461.e2 (HIV-1); test: cell-based or functional assay

Row | Binder | neutralization IC50 [µg/mL]
18 | B1 | > 50

target: HIV-1 Env of 191821.E6.1 (HIV-1); test: cell-based or functional assay

Row | Binder | neutralization IC50 [µg/mL]
19 | B1 | > 50

target: HIV-1 Env of CAP256.SU (HIV-1); test: cell-based or functional assay

Row | Binder | neutralization IC50 [µg/mL]
20 | B1 | 0.055

target: HIV-1 Env of Q168.a2 (HIV-1); test: cell-based or functional assay

Row | Binder | neutralization IC50 [µg/mL]
21 | B1 | > 50

target: HIV-1 Env of ZM197.7 (HIV-1); test: cell-based or functional assay

Row | Binder | neutralization IC50 [µg/mL]
22 | B1 | 0.055

target: HIV-1 Env of KER2018.11 (HIV-1); test: cell-based or functional assay

Row | Binder | neutralization IC50 [µg/mL]
23 | B1 | 1.76

target: HIV-1 Env of TRJO.58 (HIV-1); test: cell-based or functional assay

Row | Binder | neutralization IC50 [µg/mL]
24 | B1 | > 50

target: HIV-1 Env of ZM135.10a (HIV-1); test: cell-based or functional assay

Row | Binder | neutralization IC50 [µg/mL]
25 | B1 | > 50

target: HIV-1 Env of UG037.8 (HIV-1); test: cell-based or functional assay

Row | Binder | neutralization IC50 [µg/mL]
26 | B1 | > 50

target: HIV-1 Env of DU422.01 (HIV-1); test: cell-based or functional assay

Row | Binder | neutralization IC50 [µg/mL]
27 | B1 | 11.5

target: HIV-1 Env of 6405.v4.c34 (HIV-1); test: cell-based or functional assay

Row | Binder | neutralization IC50 [µg/mL]
28 | B1 | > 50

target: HIV-1 Env of Q769.d22 (HIV-1); test: cell-based or functional assay

Row | Binder | neutralization IC50 [µg/mL]
29 | B1 | > 50

target: HIV-1 Env of 6535.3 (HIV-1); test: cell-based or functional assay

Row | Binder | neutralization IC50 [µg/mL]
30 | B1 | > 50

target: HIV-1 Env of 0260.v5.c36 (HIV-1); test: cell-based or functional assay

Row | Binder | neutralization IC50 [µg/mL]
31 | B1 | > 50

target: HIV-1 Env of ZM109.4 (HIV-1); test: cell-based or functional assay

Row | Binder | neutralization IC50 [µg/mL]
32 | B1 | > 50

target: HIV-1 Env of TRO.11 (HIV-1); test: cell-based or functional assay

Row | Binder | neutralization IC50 [µg/mL]
33 | B1 | > 50

target: HIV-1 Env of CAAN.A2 (HIV-1); test: cell-based or functional assay

Row | Binder | neutralization IC50 [µg/mL]
34 | B1 | > 50

target: HIV-1 Env of ZM214.15 (HIV-1); test: cell-based or functional assay

Row | Binder | neutralization IC50 [µg/mL]
35 | B1 | > 50

target: HIV-1 Env of DU172.17 (HIV-1); test: cell-based or functional assay

Row | Binder | neutralization IC50 [µg/mL]
36 | B1 | > 50

target: HIV-1 Env of KER2008.12 (HIV-1); test: cell-based or functional assay

Row | Binder | neutralization IC50 [µg/mL]
37 | B1 | > 50

target: HIV-1 Env of CM244.ec1 (HIV-1); test: cell-based or functional assay

Row | Binder | neutralization IC50 [µg/mL]
38 | B1 | 26.7

target: HIV-1 Env of MB539.2B7 (HIV-1); test: cell-based or functional assay

Row | Binder | neutralization IC50 [µg/mL]
39 | B1 | > 50

target: HIV-1 Env of Q23.17 (HIV-1); test: cell-based or functional assay

Row | Binder | neutralization IC50 [µg/mL]
40 | B1 | > 50

target: HIV-1 Env of WITO.33 (HIV-1); test: cell-based or functional assay

Row | Binder | neutralization IC50 [µg/mL]
41 | B1 | > 50

target: HIV-1 Env of 3016.V5.c36 (HIV-1); test: cell-based or functional assay

Row | Binder | neutralization IC50 [µg/mL]
42 | B1 | 0.3

target: HIV-1 Env of Q259.d2.17 (HIV-1); test: cell-based or functional assay

Row | Binder | neutralization IC50 [µg/mL]
43 | B1 | > 50

target: HIV-1 Env of REJO.67 (HIV-1); test: cell-based or functional assay

Row | Binder | neutralization IC50 [µg/mL]
44 | B1 | > 50

target: HIV-1 Env of QH0692.42 (HIV-1); test: cell-based or functional assay

Row | Binder | neutralization IC50 [µg/mL]
45 | B1 | > 50

target: HIV-1 Env of CAP244.D3 (HIV-1); test: cell-based or functional assay

Row | Binder | neutralization IC50 [µg/mL]
46 | B1 | > 50

target: HIV-1 Env of PVO.04 (HIV-1); test: cell-based or functional assay

Row | Binder | neutralization IC50 [µg/mL]
47 | B1 | 10.8
